B1: Hairpin Ribozyme (parent)
chain: GUCCUCUUUCACGUGCGCGUGAAAGAGAGAAGUGAACCAGAGAAACACACGUUGUGGUAUAUUACCUGGUA

Variants of: B1
Experiment: self-cleavage, relative activity (ratio to wild type); higher = more cleavage; co-transcriptional

Variant	self-cleavage
GUCCUCUUUCACGUGCCCGUGAAAGAGAGAAGUGAACCAGAGAAACACACGUUGUGUUAUAUUACCUGGUA [G17C G57U]	0.222
GUCCUCUUUCACGUGCCCGUGAAAGAGAGAAGUGAACCAGAGAAACACACGUUGUGAUAUAUUACCUGGUA [G17C G57A]	0.148
GUCCUCUUUCACGUGCCCGUGAAAGAGAGAAGUGAACCAGAGAAACACACGUGGUGGUAUAUUACCUGGUA [G17C U53G]	0.41
GUCCUCUUUCACGUGCCCGUGAAAGAGAGAAGUGAACCAGAGAAACACACGUUGUGGAAUAUUACCUGGUA [G17C U58A]	0.453
GUCCUCUUUCACGUGCUCGUGAAAGAGAUAAGUGAACCAGAGAAACACACGUUGUGGUAUAUUACCUGGUA [G17U G29U]	0.128
GUCCUCUUUCACGUGCUCGUGAAAGAGAAAAGUGAACCAGAGAAACACACGUUGUGGUAUAUUACCUGGUA [G17U G29A]	0.105
GUCCUCUUUCACGUGCUCGUGAAAGAGAGAAGUGAACCAGAGAAACACACGUUGUGGUAGAUUACCUGGUA [G17U U60G]	0.343
GUCCUCUUUCACGUGCUCGUGAAAGAGAGAAGUGAACCAGAGAAACUCACGUUGUGGUAUAUUACCUGGUA [G17U A47U]	0.101
GUCCUCUUUCACGUGCUCGUGAAAGAGAGAAGUGAACCAGAGAAAUACACGUUGUGGUAUAUUACCUGGUA [G17U C46U]	0.14
GUCCUCUUUCACGUGCUCGUGAAAGAGAGAAGUGAACCAGAGAAACACACGUUGUGGUAUAUUACCCGGUA [G17U U67C]	0.184
GUCCUCUUUCACGUGCCCGUGAAAGAGAGAAGUGAACCAGAGAAACACACGUUGUGGUAUAUGACCUGGUA [G17C U63G]	0.125
GUCCUCUUUCACGUGCCCGGGAAAGAGAGAAGUGAACCAGAGAAACACACGUUGUGGUAUAUUACCUGGUA [G17C U20G]	0.904
GUCCUCUUUCACGUGCCCGAGAAAGAGAGAAGUGAACCAGAGAAACACACGUUGUGGUAUAUUACCUGGUA [G17C U20A]	0.736
GUCCUCUUUCACGUGCUCGUGAAAGAGAGAAGUGAACCAGAGACACACACGUUGUGGUAUAUUACCUGGUA [G17U A44C]	0.152
GUCCUCUUUCACGUGCUCGUGAAAGAGAGAAGUGAACCAGAGAUACACACGUUGUGGUAUAUUACCUGGUA [G17U A44U]	0.0838
GUCCUCUUUCACGUGCUCGUGAAAGAGAGAAGUGAACCAGAGAAACACACGUUGUGGUAUGUUACCUGGUA [G17U A61G]	0.117
GUCCUCUUUCACGUGCUCGUGAAAGAGAGAAGUGAACCAGAGAAACACACGUUGUGGUAUAUUACGUGGUA [G17U C66G]	0.158
GUCCUCUUUCACGUGCUCGUGAAAGAGAGAAGUGAACCAGAGAAACACACGCUGUGGUAUAUUACCUGGUA [G17U U52C]	0.816
GUCCUCUUUCACGUGCUCGUGAAAGAGAGAAAUGAACCAGAGAAACACACGUUGUGGUAUAUUACCUGGUA [G17U G32A]	0.122

Variant	self-cleavage
GUCCUCUUUCACGUGCCCGUGAAAGAGAGAAGUGAACCAGAGAAACACACGUUGUGGUACAUUACCUGGUA [G17C U60C]	1.08
GUCCUCUUUCACGUGCCCGUGAAACAGAGAAGUGAACCAGAGAAACACACGUUGUGGUAUAUUACCUGGUA [G17C G25C]	0.3
GUCCUCUUUCACGUGCUCGGGAAAGAGAGAAGUGAACCAGAGAAACACACGUUGUGGUAUAUUACCUGGUA [G17U U20G]	0.642
GUCCUCUUUCACGUGCUCGCGAAAGAGAGAAGUGAACCAGAGAAACACACGUUGUGGUAUAUUACCUGGUA [G17U U20C]	1.26
GUCCUCUUUCACGUGCUCGUGCAAGAGAGAAGUGAACCAGAGAAACACACGUUGUGGUAUAUUACCUGGUA [G17U A22C]	0.703
GUCCUCUUUCACGUGCUCGUGGAAGAGAGAAGUGAACCAGAGAAACACACGUUGUGGUAUAUUACCUGGUA [G17U A22G]	0.831
GUCCUCUUUCACGUGCCCGUGAAAGAGAGAAGUGAACCAGAGAAACACACGUUGUGGUAUAGUACCUGGUA [G17C U62G]	0.216
GUCCUCUUUCACGUGCUCGUGAAAGAGAGAAGUGAACCAGAGGAACACACGUUGUGGUAUAUUACCUGGUA [G17U A43G]	0.0761
GUCCUCUUUCACGUGCUCGUGAAAGAGAGAAGUGAACCAGAGAAACACACGUUGUGGUAUAUUACCUGAUA [G17U G69A]	0.382
GUCCUCUUUCACGUGCUCUUGAAAGAGAGAAGUGAACCAGAGAAACACACGUUGUGGUAUAUUACCUGGUA [G17U G19U]	0.581
GUCCUCUUUCACGUGCCCGUGAAAGAGAGAAGUGAACCAGAGAAACACACGUUGUGGUAUAUUACCUAGUA [G17C G68A]	0.196
GUCCUCUUUCACGUGCUCGUGAAAGAGAGAAGUGAAACAGAGAAACACACGUUGUGGUAUAUUACCUGGUA [G17U C37A]	0.26
GUCCUCUUUCACGUGCUCGUGAAAGAGAGAAGUGAACCAGAGAAACACACGUUGAGGUAUAUUACCUGGUA [G17U U55A]	0.142
GUCCUCUUUCACGUGCUCGUGAAAGAGAGAAGUGCACCAGAGAAACACACGUUGUGGUAUAUUACCUGGUA [G17U A35C]	1.03
GUCCUCUUUCACGUGCUCGUGAAAGAGAGAAGUGGACCAGAGAAACACACGUUGUGGUAUAUUACCUGGUA [G17U A35G]	1.02
GUCCUCUUUCACGUGCCCGUGAAAGAGAGAAGUGAACCAGAGAAACACACGUUGUGGUAUAUUACCCGGUA [G17C U67C]	0.197
GUCCUCUUUCACGUGCUCGUGAAAGAGAGAAGUGAACCAGAGAAACACACGUGGUGGUAUAUUACCUGGUA [G17U U53G]	0.954
GUCCUCUUUCACGUGCUCGUGAAAGAGAGAAGUGAACCAGAGAAACACACGUAGUGGUAUAUUACCUGGUA [G17U U53A]	0.841
GUCCUCUUUCACGUGCUCGUGAAAGAGAGAAGUGAACCAGAGAAACACACGUUGUUGUAUAUUACCUGGUA [G17U G56U]	0.112

— the RNAGym collection of RNA variant scans (doi:10.7554/elife.80360)
